These results are taken from US20220340657A1 (L AND L BIO CO LTD NINGBO CHINA, published 2022).

For test [1], the target named is T1, human LAG-3-his (human, UniProt P18627 23-422).
T1 construct: range 23-422; also called hLAG-3-his; hLAG-3
T1 sequence: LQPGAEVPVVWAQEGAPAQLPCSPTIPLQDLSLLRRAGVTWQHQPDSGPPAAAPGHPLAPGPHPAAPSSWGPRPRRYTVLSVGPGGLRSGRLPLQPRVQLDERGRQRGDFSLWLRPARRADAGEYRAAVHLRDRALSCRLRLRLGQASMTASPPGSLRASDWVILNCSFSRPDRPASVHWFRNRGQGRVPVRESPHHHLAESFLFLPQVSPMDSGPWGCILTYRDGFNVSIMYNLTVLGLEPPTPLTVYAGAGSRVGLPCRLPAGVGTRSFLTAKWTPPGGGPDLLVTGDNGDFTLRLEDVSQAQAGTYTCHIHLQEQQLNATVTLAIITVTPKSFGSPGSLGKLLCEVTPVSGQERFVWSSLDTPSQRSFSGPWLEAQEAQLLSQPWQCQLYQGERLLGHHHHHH
Briefly: ELISA on hLAG-3. The method, then: After discarding the liquid, a blocking solution of 5% skimmed milk (Bright skimmed milk powder) diluted with PBS was added at 230 μl per well, followed by incubating at 37° C. for 3 hours or 4° C. overnight (16-18 hours) for blocking. Subsequently, the blocking solution was discarded, and the micropiate was washed 5 times with PBST buffer (pH 7.4 PBS containing 0.05% tweeen-20). Then 50 μl/well of the supernatant (containing the antibody to be tested) or a starting concentration of 10 μg/ml of the antibody to be tested, which was diluted 5 times in gradient, was added, followed by incubating the mixture for 1 hour at 37° C. […] After washing the microplate 5 times with PBST, 50 μl/well TIMB chromogenic substrate (KPL, Cat. No.: 52-00-03) was added, and then incubated for […] at room temperature. Finally, 50 μl/well of 1 M H₂SO₄ was added to stop the reaction. The absorbance value at 450 nm was read by […] GO microplate reader (ThermoFisher, Cat. No.: 51119200). The clones with high affinity were selected according to the OD value or the EC₅₀ value was calculated (for antibodies with known concentrations).
On the technique in general: ELISA stands for enzyme-linked immunosorbent assay.

A further test addresses T2, bio-LAG3-mFc (human, UniProt P18627 23-450, biotin-labelled).
T2 construct: also called hLAG-3
T2 sequence (looked up): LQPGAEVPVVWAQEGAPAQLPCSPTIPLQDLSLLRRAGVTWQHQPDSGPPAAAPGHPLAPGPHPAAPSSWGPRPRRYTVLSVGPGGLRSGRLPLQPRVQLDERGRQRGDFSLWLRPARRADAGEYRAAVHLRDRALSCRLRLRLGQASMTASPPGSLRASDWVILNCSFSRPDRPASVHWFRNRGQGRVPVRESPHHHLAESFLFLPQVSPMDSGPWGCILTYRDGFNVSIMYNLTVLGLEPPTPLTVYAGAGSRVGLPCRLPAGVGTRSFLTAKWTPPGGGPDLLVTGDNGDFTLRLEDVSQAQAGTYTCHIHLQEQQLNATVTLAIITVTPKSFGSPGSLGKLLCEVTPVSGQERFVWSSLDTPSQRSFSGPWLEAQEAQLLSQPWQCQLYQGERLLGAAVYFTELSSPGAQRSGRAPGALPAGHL
Briefly: blocking ELISA, LAG-3 on Daudi cells.

For a further test, the target named is T3, human PD-1 (hFc/his tag) (human, UniProt Q15116 21-167).
T3 construct: range 21-167; not shown: hFc or his tag
T3 sequence (Q15116 21-167, form in doubt): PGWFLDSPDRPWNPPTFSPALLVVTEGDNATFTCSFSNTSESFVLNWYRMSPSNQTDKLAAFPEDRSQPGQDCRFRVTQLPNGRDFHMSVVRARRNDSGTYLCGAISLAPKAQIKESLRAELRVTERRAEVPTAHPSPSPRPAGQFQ
In words: ELISA on human PD-1.

For test [2], the target named is T1, human LAG-3-his. In words: ELISA on human LAG-3.

B1: Ab2315 (antibody, human IgG4 S228P, kappa, V domains shown)
VH: QVQLVQSGAEVKKPGASVKVSCKASGYTFTDYEMHWVKQAPGQGLEWIGGIDPETEGIAYNQKFRGRATLTADKSTSTAYMELRSLRSDDTAVYYCTNSNYYGGREAWFAYWGQGTLVTVSS
VL: DIQMTQSPSSLSASVGDRVTITCRASQDIGSSLNWLQQKPGKAIKRLIYATSSLDSGVPSRFSGSGSGTDYTLTISSLQPEDFATYYCLQYVTSPLTFGGGTKVEIKR
notes: LG2315 / LG2343, human kappa / hIgG4
B1: the EC50 in the test with human LAG-3-his [1] was found to be 0.181 nM. Further, it took 2.18 nM to reach half-maximal inhibition with bio-LAG3-mFc (IC50).

B2: Ab2314 (antibody, human IgG4 S228P, kappa, V domains shown)
VH: QVQLVQSGAEVKKPGASVKVSCKASGYTFTDYEMHWVKQAPGQGLEWIGGIDPETEGIAYNQKFRGRATLTADKSTSTAYMELRSLRSDDTAVYYCTNSNYYGGREAWFAYWGQGTLVTVSS
VL: DIQMTQSPSSLSASVGDRVTITCRASQDIGSSLNWLQQKPGKAIKRLIYATSSLDSGVPSRFSGSRSGSDYTLTISSLQPEDFATYYCLQYVTSPLTFGGGTKVEIKR
notes: human kappa / hIgG4
As to B2, the concentration for a half-maximal effect (EC50) in the test with human LAG-3-his [1] was 0.237 nM. This molecule returned a 50% inhibitory concentration (IC50) with bio-LAG3-mFc of 1.22 nM.

B3: Ab2316 (antibody, human IgG4 S228P, kappa, V domains shown)
VH: QVQLVQSGAEVKKPGASVKVSCKASGYTFTDYEMHWVKQAPGQGLEWIGGIDPETEGIAYNQKFRGRATLTADKSTSTAYMELRSLRSDDTAVYYCTNSNYYGGREAWFAYWGQGTLVTVSS
VL: DIQMTQSPSSLSASVGDRVTITCRASQDIGSSLNWLQQKPGKAIKRLIYATSSLDSGVPSRFSGSRSGSDFTLTISSLQPEDFATYYCLQYVTSPLTFGGGTKVEIKR
notes: human kappa / hIgG4
As for B3, in the test with human LAG-3-his [1], the EC50 worked out at 0.307 nM. In the test with bio-LAG3-mFc, this molecule had a 50% inhibitory concentration (IC50) of 1.5 nM.

B4: Ab2320 (antibody, human IgG4 S228P, kappa, V domains shown)
VH: QVQLVQSGAEVKKPGASVKVSCKASGYTFTDYEMHWVKQAPGQGLEWIGGIDPETEGIAYNQKFRGRATMTTDKSTSTAYMELRSLRSDDTAVYYCTNSNYYGGREAWFAYWGQGTLVTVSS
VL: DIQMTQSPSSLSASVGDRVTITCRASQDIGSSLNWLQQKPGKAIKRLIYATSSLDSGVPSRFSGSGSGTDYTLTISSLQPEDFATYYCLQYVTSPLTFGGGTKVEIKR
notes: human kappa / hIgG4
In the test with human LAG-3-his [1], B4 gave an EC50 of 1.01 nM. In the test with bio-LAG3-mFc, the IC50 turned out to be 1.32 nM.

B5: Ab2313 (antibody, human IgG4 S228P, kappa, V domains shown)
VH: QVQLVQSGAEVKKPGASVKVSCKASGYTFTDYEMHWVKQAPGQGLEWIGGIDPETEGIAYNQKFRGRATLTADKSTSTAYMELRSLRSDDTAVYYCTNSNYYGGREAWFAYWGQGTLVTVSS
VL: DIQMIQSPSSLSASVGDRVTITCRASQDIGSSLNWLQQKPGGAIKRLIYATSSLDSGVPSRFSGSRSGSDYSLTISSLQPEDFATYYCLQYVTSPLTFGGGTKVEIKR
notes: human kappa / hIgG4
In the case of B5, the half-maximal effective concentration (EC50) with human LAG-3-his [1] was 0.221 nM. The same molecule returned a 50% inhibitory concentration (IC50) in the test with bio-LAG3-mFc of 3.22 nM.

B6: Ab2322 (antibody, human IgG4 S228P, kappa, V domains shown)
VH: QVQLVQSGAEVKKPGASVKVSCKASGYTFTDYEMHWVKQAPGQGLEWIGGIDPETEGIAYNQKFRGRATMTTDTSTSTAYMELRSLRSDDTAVYYCTNSNYYGGREAWFAYWGQGTLVTVSS
VL: DIQMTQSPSSLSASVGDRVTITCRASQDIGSSLNWYQQKPGKAPKRLIYATSSLDSGVPSRFSGSRSGSDFTLTISSLQPEDFATYYCLQYVTSPLTFGGGTKVEIKR
notes: human kappa / hIgG4
Regarding B6, in the test with human LAG-3-his [1], the EC50 was determined as 0.131 nM. In addition, the 50% inhibitory concentration (IC50) with bio-LAG3-mFc stood at 2.32 nM.

B7: Ab2318 (antibody, human IgG4 S228P, kappa, V domains shown)
VH: QVQLVQSGAEVKKPGASVKVSCKASGYTFTDYEMHWVKQAPGQGLEWIGGIDPETEGIAYNQKFRGRATLTADKSTSTAYMELRSLRSDDTAVYYCTNSNYYGGREAWFAYWGQGTLVTVSS
VL: DIQMTQSPSSLSASVGDRVTITCRASQDIGSSLNWLQQKPGKAIKRLIYATSSLDSGVPSRFSGSRSGTDFTLTISSLQPEDFATYYCLQYVTSPLTFGGGTKVEIKR
notes: human kappa / hIgG4
B7 yielded a half-maximal effective concentration (EC50) in the test with human LAG-3-his [1] of 0.28 nM. Also, in the test with bio-LAG3-mFc, the IC50 came out at 0.86 nM.

B8: Ab2319 (antibody, human IgG4 S228P, kappa, V domains shown)
VH: QVQLVQSGAEVKKPGASVKVSCKASGYTFTDYEMHWVKQAPGQGLEWIGGIDPETEGIAYNQKFRGRATMTTDKSTSTAYMELRSLRSDDTAVYYCTNSNYYGGREAWFAYWGQGTLVTVSS
VL: DIQMTQSPSSLSASVGDRVTITCRASQDIGSSLNWLQQKPGKAIKRLIYATSSLDSGVPSRFSGSRSGSDYTLTISSLQPEDFATYYCLQYVTSPLTFGGGTKVEIKR
notes: human kappa / hIgG4
B8 returned an EC50 in the test with human LAG-3-his [1] of 0.764 nM. The molecule further showed an IC50 with bio-LAG3-mFc of 1.85 nM.

B9: LB2383 (bispecific antibody, human IgG4 S228P, kappa)
light: EIVLTQSPATLSLSPGERATLSCRASKGVSTSGYSYLHWYQQKPGQAPRLLIYLASYLESGVPARFSGSGSGTDFTLTISSLEPEDFAVYYCQHSRDLPLTFGGGTKVEIKRTVAAPSVFIFPPSDEQLKSGTASVVCLLNNFYPREAKVQWKVDNALQSGNSQESVTEQDSKDSTYSLSSTLTLSKADYEKHKVYACEVTHQGLSSPVTKSFNRGEC
heavy: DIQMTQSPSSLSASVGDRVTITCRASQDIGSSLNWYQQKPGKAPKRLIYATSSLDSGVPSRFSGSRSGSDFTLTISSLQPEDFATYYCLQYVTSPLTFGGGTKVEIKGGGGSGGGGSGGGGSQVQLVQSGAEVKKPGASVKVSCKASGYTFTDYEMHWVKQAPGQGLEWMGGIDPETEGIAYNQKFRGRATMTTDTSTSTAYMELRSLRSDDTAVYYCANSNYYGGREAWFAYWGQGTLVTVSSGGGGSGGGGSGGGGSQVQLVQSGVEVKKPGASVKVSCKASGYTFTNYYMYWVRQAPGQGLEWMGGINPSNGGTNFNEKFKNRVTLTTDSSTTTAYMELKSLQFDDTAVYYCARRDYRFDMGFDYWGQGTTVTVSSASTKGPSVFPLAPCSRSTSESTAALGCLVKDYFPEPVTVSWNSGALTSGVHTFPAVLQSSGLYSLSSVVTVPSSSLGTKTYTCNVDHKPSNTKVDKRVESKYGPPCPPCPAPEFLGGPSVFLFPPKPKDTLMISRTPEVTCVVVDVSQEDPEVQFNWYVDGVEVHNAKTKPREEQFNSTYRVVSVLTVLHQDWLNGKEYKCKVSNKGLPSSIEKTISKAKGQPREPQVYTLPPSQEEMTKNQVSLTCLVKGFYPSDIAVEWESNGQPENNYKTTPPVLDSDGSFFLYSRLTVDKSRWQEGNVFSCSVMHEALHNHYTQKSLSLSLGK
Turning to B9, the EC50 is 0.138 nM with human PD-1 (hFc/his tag) and 0.237 nM with human LAG-3-his [2].

B10: LB2381 (bispecific antibody, human IgG4 S228P, kappa)
light: DIQMTQSPSSLSASVGDRVTITCRASQDIGSSLNWYQQKPGKAPKRLIYATSSLDSGVPSRFSGSRSGSDFTLTISSLQPEDFATYYCLQYVTSPLTFGGGTKVEIKGGGGSGGGGSGGGGSQVQLVQSGAEVKKPGASVKVSCKASGYTFTDYEMHWVKQAPGQGLEWIGGIDPETEGIAYNQKFRGRATLTADKSTSTAYMELRSLRSDDTAVYYCTNSNYYGGREAWFAYWGQGTLVTVSSGGGGSGGGGSGGGGSEIVLTQSPATLSLSPGERATLSCRASKGVSTSGYSYLHWYQQKPGQAPRLLIYLASYLESGVPARFSGSGSGTDFTLTISSLEPEDFAVYYCQHSRDLPLTFGGGTKVEIKRTVAAPSVFIFPPSDEQLKSGTASVVCLLNNFYPREAKVQWKVDNALQSGNSQESVTEQDSKDSTYSLSSTLTLSKADYEKHKVYACEVTHQGLSSPVTKSFNRGEC
heavy: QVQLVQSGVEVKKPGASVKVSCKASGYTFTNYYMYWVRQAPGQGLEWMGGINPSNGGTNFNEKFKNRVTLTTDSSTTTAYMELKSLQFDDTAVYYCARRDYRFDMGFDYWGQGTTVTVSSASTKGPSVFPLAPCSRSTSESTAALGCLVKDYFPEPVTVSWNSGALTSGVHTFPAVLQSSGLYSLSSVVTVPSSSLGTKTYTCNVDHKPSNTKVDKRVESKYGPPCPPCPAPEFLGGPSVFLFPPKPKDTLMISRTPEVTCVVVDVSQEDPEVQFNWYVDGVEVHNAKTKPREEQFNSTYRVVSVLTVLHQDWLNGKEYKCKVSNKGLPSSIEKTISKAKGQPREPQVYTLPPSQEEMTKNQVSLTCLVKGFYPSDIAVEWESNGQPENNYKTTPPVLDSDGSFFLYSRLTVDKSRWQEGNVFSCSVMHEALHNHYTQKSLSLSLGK
Take B10: the EC50 worked out at 0.332 nM with human PD-1 (hFc/his tag) and 0.79 nM with human LAG-3-his [2].

B11: LB2382 (bispecific antibody, human IgG4 S228P, kappa)
light: EIVLTQSPATLSLSPGERATLSCRASKGVSTSGYSYLHWYQQKPGQAPRLLIYLASYLESGVPARFSGSGSGTDFTLTISSLEPEDFAVYYCQHSRDLPLTFGGGTKVEIKRTVAAPSVFIFPPSDEQLKSGTASVVCLLNNFYPREAKVQWKVDNALQSGNSQESVTEQDSKDSTYSLSSTLTLSKADYEKHKVYACEVTHQGLSSPVTKSFNRGECGGGGSGGGGSGGGGSQVQLVQSGAEVKKPGASVKVSCKASGYTFTDYEMHWVKQAPGQGLEWIGGIDPETEGIAYNQKFRGRATLTADKSTSTAYMELRSLRSDDTAVYYCTNSNYYGGREAWFAYWGQGTLVTVSSGGGGSGGGGSGGGGSDIQMTQSPSSLSASVGDRVTITCRASQDIGSSLNWYQQKPGKAPKRLIYATSSLDSGVPSRFSGSRSGSDFTLTISSLQPEDFATYYCLQYVTSPLTFGGGTKVEIK
heavy: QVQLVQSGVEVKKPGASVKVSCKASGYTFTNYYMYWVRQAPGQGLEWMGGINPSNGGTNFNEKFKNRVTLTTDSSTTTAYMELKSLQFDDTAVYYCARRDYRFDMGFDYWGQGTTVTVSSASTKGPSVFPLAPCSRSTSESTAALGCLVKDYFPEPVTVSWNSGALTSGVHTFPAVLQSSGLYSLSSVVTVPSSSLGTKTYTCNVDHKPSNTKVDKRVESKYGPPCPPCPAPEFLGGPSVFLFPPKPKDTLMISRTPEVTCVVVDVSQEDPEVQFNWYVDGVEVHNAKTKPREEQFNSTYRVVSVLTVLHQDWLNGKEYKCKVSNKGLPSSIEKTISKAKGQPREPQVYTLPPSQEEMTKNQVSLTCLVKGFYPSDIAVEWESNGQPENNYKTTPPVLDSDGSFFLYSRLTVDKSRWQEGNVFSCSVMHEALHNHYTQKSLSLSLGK
Take B11: the values for the EC50 with human PD-1 (hFc/his tag) and with human LAG-3-his [2] were 0.309 nM and 0.951 nM, respectively.

The term EC50 denotes the concentration needed to bring the measured effect to its halfway point. A low value points to higher potency in that assay. In general, IC50 refers to the concentration at which inhibition is half-maximal.
